Here are results for one molecule from PMC10486284.

This test deals with T1, Human TIGIT extracellular domain, C-terminal hexahistidine and AviTag (human), Q495A1.
T1 chain: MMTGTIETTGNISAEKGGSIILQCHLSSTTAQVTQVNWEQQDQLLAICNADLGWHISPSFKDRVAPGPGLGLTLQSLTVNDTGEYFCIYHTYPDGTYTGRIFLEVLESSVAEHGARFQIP
The experiment in a line: SEC-MALS. The settings on record: remark: other sources report otherwise.

B1: Human CD112 extracellular domain, C-terminal hexahistidine, Q92692 32-360 (ligand)
chain: QDVRVQVLPEVRGQLGGTVELPCHLLPPVPGLYISLVTWQRPDAPANHQNVAAFHPKMGPSFPSPKPGSERLSFVSAKQSTGQDTEAELQDATLALHGLTVEDEGNYTCEFATFPKGSVRGMTWLRVIAKPKNQAEAQKVTFSQDPTTVALCISKEGRPPARISWLSSLDWEAKETQVSGTLAGTVTVTSRFTLVPSGRADGVTVTCKVEHESFEEPALIPVTLSVRYPPEVSISGYDDNWYLGRTDATLSCDVRSNPEPTGYDWSTTSGTFPTSAVAQGSQLVIHAVDSLFNTTFVCTVTNAVGMGRAEQVIFVRETPNTAGAGATGG
modifications: here or on the partner: biotin on the BirA biotinylation tag (BLI and ProteOn SPR)
Consider B1, for which the stoichiometry N was determined as 1.
